Laboratory results as given in PMC3557803.

Assays:
Experiment in all cases: UV-visible absorbance assay of deamination
Type in all cases: biochemical, Martinezella rhizogenes
Conditions in all cases: 20 mM HEPES pH 7.7
[1] = substrate: Nc1nc2[nH]c(=O)cnc2c(=O)[nH]1
[2] = substrate: C[C@H](O)C(=O)C1=Nc2c(nc(N)[nH]c2=O)NC1
[3] = substrate: Nc1nc2ncc(CNc3ccc(C(=O)N[C@@H](CCC(=O)O)C(=O)O)cc3)nc2c(=O)[nH]1
[4] = substrate: Nc1nc2c(c(=O)[nH]1)N=C(CO)CN2
[5] = substrate: Nc1nc2nccnc2c(=O)[nH]1
[6] = substrate: Nc1nc2c(c(=O)[nH]1)N=C([C@H](O)[C@H](O)CO)CN2
[7] = substrate: Nc1nc2nc(C(=O)O)cnc2c(=O)[nH]1
[8] = substrate: Nc1nc2ncc(C(=O)O)nc2c(=O)[nH]1
[9] = substrate: Nc1nc2ncc(C=O)nc2c(=O)[nH]1
[10] = substrate: Nc1nc2ncc(CO)nc2c(=O)[nH]1
[11] = substrate: C[C@H](O)[C@H](O)C1=Nc2c(nc(N)[nH]c2=O)NC1
[12] = substrate: Nc1nc2ncc([C@H](O)[C@H](O)CO)nc2c(=O)[nH]1
[13] = substrate: C[C@H](O)[C@H](O)c1cnc2[nH]c(N)nc(=O)c2n1

B1: Arad3529 (Rhizobium rhizogenes K84) (protein)
chain: MSYSFMSPPNAARFVLSNATVPAVTVVGFTGPSSEGLMKADIVVADGLIKDILPAGTAPAELAKADMRDGMVWPTFADMHTHLDKGHIWERRANPDGSFMGALDAVRSDREANWSAADVRKRMEFSLRAAYAHGTSLIRTHLDSLAPQHRISFEVFSEVREAWKDKIALQAVALFPLDFMVDDAFFADLTTVVREAGGLLGGVTQMNPDIDAQLDKLIRAAAANGLDIDLHVDETEDREVLTLKAIAAAVLRNGFTGKVTAGHCCSLARQDENVAAATIDLVAKAGISIVALPMCNMYLQDRHPGRTPRWRGVTLLHELAAAGVPTAVASDNTRDPFYAYGDLDPVEVFREAVRILHLDHPLDTAARVVTTSPASILGRPDIGRIAVGGPADLVLFSARRWSEFLSRPQSDRVVLRKGKVIDRSLPDYRELDTVIGA
[1]
  Km: 5.7 ± 0.5 µM
  kcat: 1.6 ± 0.1 s⁻¹
  kcat/Km: 280000 M⁻¹ s⁻¹
[2]
  Km: 22 ± 9 µM
  kcat: 2.9 ± 0.3 s⁻¹
  kcat/Km: 130000 M⁻¹ s⁻¹
[3]
  Km: 50 ± 10 µM
  kcat: 6.4 ± 0.5 s⁻¹
  kcat/Km: 130000 M⁻¹ s⁻¹
[4]
  Km: 37 ± 7 µM
  kcat: 1.2 ± 0.1 s⁻¹
  kcat/Km: 33000 M⁻¹ s⁻¹
[5]
  Km: 39 ± 4 µM
  kcat: 131 ± 4 s⁻¹
  kcat/Km: 3.3e+06 M⁻¹ s⁻¹
[6]
  Km: 200 ± 100 µM
  kcat: 0.036 ± 0.008 s⁻¹
  kcat/Km: 260 M⁻¹ s⁻¹
[7]
  Km: 13 ± 1 µM
  kcat: 48 ± 2 s⁻¹
  kcat/Km: 3.7e+06 M⁻¹ s⁻¹
[8]
  Km: 27 ± 2 µM
  kcat: 110 ± 3 s⁻¹
  kcat/Km: 4e+06 M⁻¹ s⁻¹
[9]
  Km: 12 ± 2 µM
  kcat: 64 ± 12 s⁻¹
  kcat/Km: 5.2e+06 M⁻¹ s⁻¹
[10]
  Km: 23 ± 3 µM
  kcat: 28 ± 1 s⁻¹
  kcat/Km: 1.2e+06 M⁻¹ s⁻¹
[11]
  Km: 93 ± 13 µM
  kcat: 0.09 ± 0.007 s⁻¹
  kcat/Km: 930 M⁻¹ s⁻¹
[12]
  Km: 61 ± 7 µM
  kcat: 19 ± 1 s⁻¹
  kcat/Km: 310000 M⁻¹ s⁻¹
[13]
  Km: 47 ± 9 µM
  kcat: 46 ± 4 s⁻¹
  kcat/Km: 1e+06 M⁻¹ s⁻¹
